Reference: the nanobody polyreactivity screen of Harvey et al. (2022)

Assay: yeast display, Sf9 membrane polyspecificity reagent, FACS + sequencing; frameworks hold sequencing errors
How it was run: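 Nanobodies from a synthetic yeast display library (Saccharomyces cerevisiae BJ5465), induced 36–48 hours with galactose, were stained 1 hour at 4 °C with 10% biotinylated, detergent-solubilized Sf9 membrane reagent, enriched on streptavidin microbeads, then FACS-sorted. Anti-HA (expression) and streptavidin (reagent binding) fluorescence set low and high (top ~1%) gates. Polyreactivity labels come from the gate of origin. Genes were colony-PCR amplified, MiSeq 2 × 250 sequenced and filtered by CDR length.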

Row | Sequence | polyreactivity (PSR sort gate)
1 | QVQLVESGGGLVQAGGSLRLRCAASANTFGFYAMGWYRQAPGKERELVAGITSGDSTYYADSVKGRFTISRDNAKNTVYLQMNSLKPEDSAVYYCATAPYVSSRRYGPYEYWGQGTQVTVSS | low polyreactivity
2 | QVQLVESGGGLVQAGGSLRLSCAASGLTFSRYARGWYRQAPGKERELVAAITGSGGNTYYADSVKGRFTISRDNAKNTVYLQMNSLKPEETAVYYCAARDRGDVTRRKGYYWGQGTQVTVSS | high polyreactivity
3 | QVQLVESGGGVVQAGGSLRLSCSASGRTLDKNVMGWYRQAPGKERELVAAINTGGRTYYADSVKGRFTISRDNAKNTVYLQMNSLKPEDTAVYYCAKEGHVNPRPTVGGDYWGQGTQVTVSS | low polyreactivity
4 | QVQLVESGGGLVQAGGSLRLSCAASGSTFYLYAMGWYRQAPGKEREFVARISASGGNTYYADSVKGRFTISRDNAKNTVYLQMNSLKPEDTAVYSCAARVRGRNASDYDYYYWGQGTQVTVSS | high polyreactivity
5 | QVQLVESGGGLVKAGGSLRLSSDASGSISKSYAMGWYRQAPGKERELVAVITSGGNTYYADSVKGRFTISRDNAKNTVYLQMNSLKPEDTAVYYCAAKSGRGRTMDYWGQGTQVTVSS | high polyreactivity
6 | QVQLVESGGGLVQAGGSLRLSCAASGSIFGSYARGRYRQAPVKERELVAGITYRGSSTYYADSVKGRFTISRDKAKNTVYLQMNSLKPEDTAVYYCAADPVFDEYDYWGQGTQVTVSS | low polyreactivity
7 | QVQLVESGGGLDQAGGSLRLSCAASGYTFVGNAMGWYRQAPGKERELVAAISRSGGRTYYADSVKGRFTISRDNAKYTVYLQMNSLKPEDTAVYYCAKQPGSGPYYWGQGTQVTVSS | high polyreactivity
8 | QVQLVESGGGLVQAGGSLRLSCAASGSTFPRYGMGWYRQAPGKERELVATITNGAITYYADSVKGRFTISRDNAKNTVYLQMNSLKPEDTAVYYCAARHFQVPDYFPEYHYWGQGTQVTVSS | low polyreactivity
9 | QVQLVESGGGLVQAGGSLRLSCAASGAILRRYAMGWYRQAPGKERELVAAISYSGGNTYYADSVKGRFTISRDNAKNTVYLQMNSLKPEDTAVYYCAARYYGTYRGFYYWGQGTQVTVSS | high polyreactivity
10 | QVQLVESVGGLVQAGGSHRLSCAASGSTFYRYAMGWYRQAPGKERELVAAISRSGGTTYYADSVKGRFTISRDNAKNTVYLQMNSLKPDDTAVYYCNARGRYEYGYWGQGTEVTVSS | high polyreactivity
11 | QVQLVESGGGLVQAGGSLRLSCAASGRIFYGNAMGWYRQAPGKERELVAVITSSGGSTYYADSVKGRFTISRDNAKNTVYLQMNSLKPEDTAVYYCAKYYRHWYTHLGYDYWGQGTQVTVSS | high polyreactivity
12 | QVQLVESGGGLVQAGGSLRLSCAASASIFPDNTMGWYRQAPGKERELVAAIDGRGGTTYYADSVKGRFTISRDNAKNTVYLQMNSLKPEDTAVYYCARDIGHSARYDYWGQGTQVTVSS | low polyreactivity
13 | QVQLVQSRGGLVQAGGSLRLSCAASGRTFVYNAMGWYRPAPGKERELVAAIDGGGDRTYYADSVKGRFTISRDNAKNTVYLQMNSLKPEDTAVYYCARDPGDTYYYSYPEGDYWGLGTQVTVSS | low polyreactivity
14 | QVQLVESGGGLVQAGGSLRLSCAASRSTSYDYAMGWYRQAPGKERELVAAISGSSSTTYYADSVKGRFTISRDNAKNTVSLQMNSLKPEDTAVYYCNAVTTSGSGYGYWGQGTQVTVSS | low polyreactivity
15 | QVQLVESGGGLVQAGGSLRLSCAASGFIYRVYAIGWYRQAPGKERELVAAITGNGVSTYYADSVKVRFTISRDNAKNTVYLQMNSLKPEDTAVYYCATYGRRWYSSRRLDYWGQGTQVTVSS | low polyreactivity
16 | QVQLVESGGGLVQAGGSLRLSCAASGFIFAWNDMGWYRQAPGKERELVAAISSGTSTNYADSVKGRFTISRDNAKNTVYLQMNSLKPEDTGVYYCNVDSPLQPYRYYYWGQGSQVTVSS | low polyreactivity
17 | QVQLVESGGGLVQEGGILRLICAASGIIFPIYAMGWYRQAPGKERELVAAISQSGASTYYADSVKGRFTISRDNAKNTVYLALNSLKPEDTAVYYCAALNGDGPWQLSSEEFVYWGQGTQVTVSS | low polyreactivity
18 | QVQLVESGGGLVQAGGSLRLSCAASGSTFPYNAMGWYRQAPGKERELVATIDRGSTTNYADSVKGRFTISRDNAKNTVYLQMNSLKPEDTAVYYCNAKFIWWYEKGGWNVSKYEYWGQGTQVTVSS | low polyreactivity
19 | QVQLVESGGGLVQAGGSLRLSCAASGSTFVVNAMGWYSQAPGKERELVAAIDGSDGSTYYADSVKGRFTISRDNAKNTVYLQMNSLKPEDTAVYYCAAEVLGRPDVENDYWGQGTHVTVSS | low polyreactivity
20 | QVQLVESGGGLVQAGGSLRLSCAASGNTFYQYAMGWYRQAPGKERELVAAIDWSGGSTYADSVKGRFTISRDNAKNTVYLQMNSLKPEDTAVYYCNASVKPSNVWSRGYDYWGQGTQVTVSS | low polyreactivity
21 | QVQLVESGGGLVQAGGSLRLSCAASGRIFYGYTMGWYRQAPGKERELVAAITWSGGSTHYADSVKGRFTISRDNAKNTVYLQMNSLKPEDTAVYYCNARRRSVYRGLYDYWGQGTQVTVSS | high polyreactivity
22 | QVQLVESGGGLVQAGGSLRLSCASSGRTFFPYAKGWYRQAPGKEREFVAAITKTDDSTYYADSVKGRFTISRDNAKNTVYLQMNSLKPEDTAVYYCNAGDTQIRFYYWGQGTQVTVSS | low polyreactivity

Row | Sequence | polyreactivity (PSR sort gate)
23 | QVQLVESGGGLVQAGGSLRLSCAASGSILHPNGMGWYRQAPGKERELVAAITINGDSTYYADSVKGRFTISRDNAKNTVYLQMNSLKPEDTAVYYFAVDGWPTGWYYYWGQGTQVTVSS | low polyreactivity
24 | QVQLVESGAGLVQAGGSLRLSCAASGSTFPFYDMGWYRQAPGKEREFVAVISSSGGSTYYADSVKGRFTISRDNAKNTVYLQMNSLKPEDTAVYYCARRYPGRWYDYWGQGTQVTVSS | high polyreactivity
25 | QVQLVESGGGLVQAGGSLRLSCAASGSIFSPYAMGWYRQAPGKQRELVAAISKTGGSTYYADSVKGRFTISRDNAKNTVYLQMNSLKPEDTAVYYCATQGPRWVRHFDYWGQGTQVTVSS | low polyreactivity
26 | QVQLVESGGGLVQAGGSLRLSCAASGRIFNDYAMGWYRQAPGKERELVATYADSVKGRFTISRDNAKNTVYLQMNSLKPEDTAVYYCAADFPSFPDFRPEYDYWGQGTQVTVSS | low polyreactivity
27 | QVQLVESGGGLVQAGGSLRLSCAASGFIFDFYAMGWYRQAPGKERELVADITGGGSTYYADSVKGRFTISRDNAKNTVYLQMNSLKPEDTAVYYCAASYGVYWYSFWYHVAWYDYWGQGTQVTVSS | low polyreactivity
28 | QVQLVESGGGLVQAGGSLRLSCAASGSIFTVNAMGWYRQAPGKEMEFVAAITGGGTSTYYADSVKGRFTISRDNAKNTVYLQMNSLTPEVTAVYYCAATTYHYSPTYGYWGQGTQVTVSS | low polyreactivity
29 | QVQLQESGGGLVQAGGSLRQSCAASGYIFQPFYMGWYRQAPGKERELVAGISVGGNTYYADSVKGRFTISRDNAKNSVFLQMNSLKPEDTAVYYCAVQFVLQDKYVYWGQGTQVTVSS | low polyreactivity
30 | QVQLGESGGGLVQAGGSRRFSSAASGSIVKAYAMGWYRPAPGKDRELVAAISTSDGSTYYADSVKGRFTISRDNAKNTVYLQMNSLKPEDTAVYYCATEYDYWDDSYDSWGQGTQVTVSS | low polyreactivity
31 | QVQLVESGGGLVQAGGSLRLSCAASGYIFFNYGMGWYRQAPGKERELVAASTTIDGTTYYADSVKGRFTISRDNAKHTVYLQMNSLKPEDTAVYYCNADLYWLWYGEFDYWGQGTQVTVSS | high polyreactivity
32 | QVQLEESGGGFVQAGGSLRLSCAASGYIFFPHAMGWYRQATWKERELVAAINSRGASTYYADSVKGRFTISRDNAKNTVSLQMNSLKPVDTAVYYCAKGSGLHIYHYYGVPYDYWGQGTQVTVSS | low polyreactivity
33 | QVQLVESGGGLVQAGGSLRLSCAASGSTFGTNAMGRYRQAPGKERELVAVITFSGGSTYYADSVKGRFTISRDNAKNTVYLQMNSLKPEDTAVYYCAKDGFITFVYDHDYWGQGTQVTVSS | low polyreactivity
34 | QVQLVESGGGLVQAGGSLRLSCAASGSTYYIYAMGWYRQAPGKEREMVAAISDNGGTTYYADSVKGRFTISRDNAKNTVYLQMNSLKPEDTAVYYCNAEGWWYWYYGSYDYWGQGTQVTVSS | high polyreactivity
35 | QVQLVESGGGLVQAGGSLRLSCAASGRTFIKYAMGWYRPAPGKERALVAAISRNGGSTNYADSVKGRFTISRDNAKNTVDLQMNSLKPEDTAVYYCAAVGTVSSTVGYNYWGQGTQVTVSS | high polyreactivity
36 | QVQLVESRGVLVQAGGSIRLSCAASGFSIDYYAMGWYRPAPGKERELVAAITTSGGRTYYADSVKGRFTIARDYAKNTVYLQMNSLKPEDTAVYYCAVVTWIYGTRFNYWGQGTQVTVSS | high polyreactivity
37 | QVQLVESGGGLVQAGGSLRLSCAPYGLTFYGYTMGWYIQAPGKQRELVASISWSGGNKYYADSVKGRFTISRDKAKNSVYLQMNSLKPEDTAVYYCAAEHWTYDCVDYWGQGTQVTVSW | low polyreactivity
38 | QVQLVESGGGLVQAGGSLRLSSAASGRTFFGYAMGCYRQAPGTERELVAVISYSDGSTYYADSVKGRFTISRDNAKNTVYLQMNSLKPEDTAVYYCNARSRVGNSGADYDYWGQGTQETVSS | low polyreactivity
39 | QVQLVESGGGLVQAGGSLRLSCAASGLIFTTNAMGSYRQAPGKEREFVAAISPSGGSTYYADSVKGRFTISRDNAKNTVYLQMNRLKPEDTAVYYCAARYSPVWHKYYYWGQGTQVTVSS | high polyreactivity
40 | QVQLVESGGGLVQAGGSLRLSCAASGRSFGLYVMGWYRQAPGKERELVAAITGVGSTKYADSVKGRFTISRDNAKNTVYLQMNSLKPEDTEVYYCAKRYLYDRRHAEYWAANDYWGQGTQVTVSS | low polyreactivity
41 | QVQLVESGGGLVQAGGSLRLSCAASGFTNLNSMGRYRQAPGKERELVADISASGGTTYYADSVKGRFTISLDNAKNTVYLQMNSLKPEDTAVYYCAARRYYPRWYYWIRFDYWGQGTQVTVSS | high polyreactivity
42 | QVQLVESGGGLVQAGGSLRLSCAASGRIFKVYAMGWYRQAPGKERELVATISRGGSTYYADSVKGRFTISRDNAKNTVYLQMNSLKPEDTAVYYCATQRERYYWFGAWSYDYWGQGTQVTVSS | low polyreactivity
43 | QVQLVESGGGLVQAGGSLRLSCAASGIIYSINAMGWYRQAPGKERELVAAISRSGGSTNYADSVKGRFTISRDNAKNTVYLQMNSLKPEDSAVYYCATVHRYSVWSHNYWGQGTQVTVSS | high polyreactivity
